What follows are sequences tested on Escherichia coli TOP10 (assay: shrunken log2 fold change of peptide-encoding DNA abundance (4.5 h post-induction vs induction); higher = less antimicrobial activity (less host growth inhibition)). Conditions: time post-induction: 4.5 h; library: site-saturation at positions 5, 18, 19, 20.
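Also: peptides expressed intracellularly from a pBAD plasmid library in pooled LB shake-flask culture, induced with 0.3% L-arabinose, DNA abundance read by NGS, three biological replicates, DESeq2 with apeglm shrinkage.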

Row | Sequence | shrunken log2 fold change
1 | RRIRERPPRLPRPRPRPNHLPRP | 0.0486
2 | RRIRERPPRLPRPRPRPNHMPRP | -0.31
3 | RRIRERPPRLPRPRPRPNHNPRP | -0.418
4 | RRIRERPPRLPRPRPRPNHWPRP | -0.138
5 | RRIRERPPRLPRPRPRPNKNPRP | 0.0755
6 | RRIRERPPRLPRPRPRPNKVPRP | -0.372
7 | RRIRERPPRLPRPRPRPNLKPRP | -0.56
8 | RRIRERPPRLPRPRPRPNMEPRP | -0.384
9 | RRIRERPPRLPRPRPRPNMIPRP | -0.272
10 | RRIRERPPRLPRPRPRPNNDPRP | -0.663
11 | RRIRERPPRLPRPRPRPNNFPRP | -0.0786
12 | RRIRERPPRLPRPRPRPNNQPRP | -0.59
13 | RRIRERPPRLPRPRPRPNPSPRP | -0.162
14 | RRIRERPPRLPRPRPRPNQQPRP | -0.112
15 | RRIRERPPRLPRPRPRPNRIPRP | -0.0288
16 | RRIRERPPRLPRPRPRPNVAPRP | -0.186
17 | RRIRERPPRLPRPRPRPNVLPRP | -0.0106
18 | RRIRERPPRLPRPRPRPNYNPRP | -1.1
19 | RRIRERPPRLPRPRPRPNYYPRP | -0.893
20 | RRIRERPPRLPRPRPRPPCVPRP | -0.159
21 | RRIRERPPRLPRPRPRPPDNPRP | 0.197
22 | RRIRERPPRLPRPRPRPPDSPRP | -0.303

Row | Sequence | shrunken log2 fold change
23 | RRIRERPPRLPRPRPRPPEEPRP | 0.499
24 | RRIRERPPRLPRPRPRPPEYPRP | -0.0278
25 | RRIRERPPRLPRPRPRPPFDPRP | -0.0468
26 | RRIRERPPRLPRPRPRPPGCPRP | 0.124
27 | RRIRERPPRLPRPRPRPPGDPRP | 0.619
28 | RRIRERPPRLPRPRPRPPGGPRP | 0.56
29 | RRIRERPPRLPRPRPRPPGPPRP | 0.478
30 | RRIRERPPRLPRPRPRPPGQPRP | 0.104
31 | RRIRERPPRLPRPRPRPPGYPRP | -0.175
32 | RRIRERPPRLPRPRPRPPHIPRP | -0.366
33 | RRIRERPPRLPRPRPRPPHLPRP | -0.0668
34 | RRIRERPPRLPRPRPRPPKEPRP | 0.0608
35 | RRIRERPPRLPRPRPRPPKPPRP | 0.122
36 | RRIRERPPRLPRPRPRPPLHPRP | -0.0595
37 | RRIRERPPRLPRPRPRPPLKPRP | 0.322
38 | RRIRERPPRLPRPRPRPPNLPRP | 0.0423
39 | RRIRERPPRLPRPRPRPPNPPRP | 0.216
40 | RRIRERPPRLPRPRPRPPQMPRP | 0.208
41 | RRIRERPPRLPRPRPRPPRHPRP | 0.0414
42 | RRIRERPPRLPRPRPRPPSVPRP | -0.126
43 | RRIRERPPRLPRPRPRPPVFPRP | -0.152
44 | RRIRERPPRLPRPRPRPPVWPRP | 0.634

Row | Sequence | shrunken log2 fold change
45 | RRIRERPPRLPRPRPRPPWCPRP | 0.217
46 | RRIRERPPRLPRPRPRPPWDPRP | -0.0062
47 | RRIRERPPRLPRPRPRPPWKPRP | 0.0356
48 | RRIRERPPRLPRPRPRPPWWPRP | 0.537
49 | RRIRERPPRLPRPRPRPQAAPRP | -0.194
50 | RRIRERPPRLPRPRPRPQALPRP | -0.378
51 | RRIRERPPRLPRPRPRPQCDPRP | -0.162
52 | RRIRERPPRLPRPRPRPQCLPRP | -0.116
53 | RRIRERPPRLPRPRPRPQDSPRP | -0.222
54 | RRIRERPPRLPRPRPRPQDVPRP | -0.177
55 | RRIRERPPRLPRPRPRPQDYPRP | -0.091
56 | RRIRERPPRLPRPRPRPQEEPRP | -0.000946
57 | RRIRERPPRLPRPRPRPQEKPRP | -0.015
58 | RRIRERPPRLPRPRPRPQFEPRP | -0.0369
59 | RRIRERPPRLPRPRPRPQGTPRP | 0.0468
60 | RRIRERPPRLPRPRPRPQHKPRP | -0.467
61 | RRIRERPPRLPRPRPRPQITPRP | -0.778
62 | RRIRERPPRLPRPRPRPQIYPRP | -0.23
63 | RRIRERPPRLPRPRPRPQKMPRP | -0.28
64 | RRIRERPPRLPRPRPRPQMHPRP | -0.634
65 | RRIRERPPRLPRPRPRPQMVPRP | -0.0708
66 | RRIRERPPRLPRPRPRPQPMPRP | -0.185

Row | Sequence | shrunken log2 fold change
67 | RRIRERPPRLPRPRPRPQRHPRP | 1.63
68 | RRIRERPPRLPRPRPRPQRPPRP | -0.0471
69 | RRIRERPPRLPRPRPRPQSKPRP | -0.769
70 | RRIRERPPRLPRPRPRPQSNPRP | -0.172
71 | RRIRERPPRLPRPRPRPQVNPRP | -0.129
72 | RRIRERPPRLPRPRPRPQVQPRP | 0.029
73 | RRIRERPPRLPRPRPRPQVTPRP | -0.118
74 | RRIRERPPRLPRPRPRPQYLPRP | -0.0574
75 | RRIRERPPRLPRPRPRPQYPPRP | -0.208
76 | RRIRERPPRLPRPRPRPRANPRP | -0.158
77 | RRIRERPPRLPRPRPRPRAWPRP | 0.195
78 | RRIRERPPRLPRPRPRPRCMPRP | -0.355
79 | RRIRERPPRLPRPRPRPRDSPRP | 0.0154
80 | RRIRERPPRLPRPRPRPRECPRP | -0.018
81 | RRIRERPPRLPRPRPRPREWPRP | 0.325
82 | RRIRERPPRLPRPRPRPRFIPRP | -0.414
83 | RRIRERPPRLPRPRPRPRGFPRP | -0.0872
84 | RRIRERPPRLPRPRPRPRHEPRP | -0.304
85 | RRIRERPPRLPRPRPRPRIEPRP | -0.0877
86 | RRIRERPPRLPRPRPRPRIIPRP | 0.0824
87 | RRIRERPPRLPRPRPRPRIVPRP | -0.0184
88 | RRIRERPPRLPRPRPRPRIWPRP | 0.143

Row | Sequence | shrunken log2 fold change
89 | RRIRERPPRLPRPRPRPRKSPRP | -0.131
90 | RRIRERPPRLPRPRPRPRLWPRP | 0.0271
91 | RRIRERPPRLPRPRPRPRMVPRP | -0.462
92 | RRIRERPPRLPRPRPRPRNWPRP | -0.0255
93 | RRIRERPPRLPRPRPRPRPEPRP | 0.314
94 | RRIRERPPRLPRPRPRPRPPPRP | 0.69
95 | RRIRERPPRLPRPRPRPRPVPRP | 0.114
96 | RRIRERPPRLPRPRPRPRQEPRP | 0.315
97 | RRIRERPPRLPRPRPRPRQLPRP | -0.0334
98 | RRIRERPPRLPRPRPRPRQRPRP | 0.32
99 | RRIRERPPRLPRPRPRPRQVPRP | -0.0483
100 | RRIRERPPRLPRPRPRPRSNPRP | -0.0433
101 | RRIRERPPRLPRPRPRPRSYPRP | -0.0497
102 | RRIRERPPRLPRPRPRPRTFPRP | -0.0471
103 | RRIRERPPRLPRPRPRPRTMPRP | -0.135
104 | RRIRERPPRLPRPRPRPRTTPRP | 0.00749
105 | RRIRERPPRLPRPRPRPRVDPRP | 0.0531
106 | RRIRERPPRLPRPRPRPRWDPRP | 0.143
107 | RRIRERPPRLPRPRPRPRWYPRP | -0.464
108 | RRIRERPPRLPRPRPRPRYGPRP | 1.59
109 | RRIRERPPRLPRPRPRPRYMPRP | -0.785

From the supplement of paper PMC9112550, “Optimization of the antimicrobial peptide Bac7 by deep mutational scanning” (BMC Biology, 2022)
